Results on 10 substances are retold here after patent US20260117259A1.

Where “and” joins values, the source holds several entries; their conditions need not be identical. Equal values may be shown once. Read-outs that look alike come from different tables or passages of the source.

Assay [1] has as its target CRF250-SOSIP, soluble HIV-1 envelope glycoprotein trimer (SOSIP.v7 based on the CRF250 HIV-1 isolate) (HIV-1). In words: flow cytometry of edited Jeko-1 cells, HDRT by AAV, double staining with CRF250 SOSIP-APC and CRF250 SOSIP-PE. (In general: In flow cytometry, cells or beads pass a laser one at a time.)
The target is the same in assay [2]. In words: flow cytometry of edited Jeko-1 cells, HDRT as dsDNA, double staining with CRF250 SOSIP-APC and CRF250 SOSIP-PE.
Assay [3] has the same target. In words: flow cytometry of Jeko-1 cells edited at the native heavy and kappa loci, double staining with CRF250 SOSIP-APC and CRF250 SOSIP-PE.
Assay [4] has the same target. In words: flow cytometry of primary murine B cells edited at native loci, HDRT by AAV, double staining with CRF250 SOSIP-APC and CRF250 SOSIP-PE.
Assay [5] shares this target. In words: flow cytometry of primary murine B cells edited at native loci, HDRT as dsDNA, double staining with CRF250 SOSIP-APC and CRF250 SOSIP-PE.
The target in assay [6] is 16055-ConM-v8.1ds SOSIP trimer (HIV-1). In words: flow cytometry, primary murine B cells edited in the HCDR3, labeled 16055-ConM-v8.1ds SOSIP against surface IgM.
Another assay addresses SOSIP. In words: flow cytometry, APC-labeled SOSIP trimer against anti-IgM.
Assay [7] deals with CRF250-SOSIP, soluble HIV-1 envelope glycoprotein trimer (SOSIP.v7 based on the CRF250 HIV-1 isolate) (HIV-1). In words: flow cytometry of control primary murine B cells (RNP without HDRT), lower rows (IgK gRNAs), double staining with CRF250 SOSIP-APC and CRF250 SOSIP-PE.
The target is the same in assay [8]. In words: flow cytometry of control primary murine B cells (RNP without HDRT), double staining with CRF250 SOSIP-APC and CRF250 SOSIP-FITC.
For assay [9] the target is unchanged. In words: flow cytometry of control primary murine B cells (RNP without HDRT), double staining with CRF250 SOSIP-APC and CRF250 SOSIP-PE.
The target is the same in assay [10]. In words: flow cytometry of control primary murine B cells (RNP of the intron approach without HDRT), double staining with CRF250 SOSIP-APC and CRF250 SOSIP-PE.
For assay [11] the target is unchanged. In words: flow cytometry of control primary murine B cells (RNP without HDRT), upper row (IgH gRNAs), double staining with CRF250 SOSIP-APC and CRF250 SOSIP-PE.
For assay [12] the target is unchanged. In words: flow cytometry of control Jeko-1 cells (RNP without HDRT), double staining with CRF250 SOSIP-APC and CRF250 SOSIP-PE.
Assay [13] has the same target. The description is as above. This is another data set of the same source.
Assay [14] shares this target. In words: flow cytometry of Jeko-1 cells edited at the native heavy-chain locus, double staining with CRF250 SOSIP-APC and CRF250 SOSIP-PE.
Assay [15] has the same target. In words: flow cytometry of Jeko-1 cells edited with gRNA targeting JH6, staining with CRF250 SOSIP-APC against anti-IgM.
The target is the same in assay [16].
Assay [17] has the same target. The source holds these as a separate data set.

In the case of “10-1074 heavy and light chain variable genes introduced at the native heavy and kappa loci of Jeko-1 (antibody)”, the values for the % of cells in the SOSIP-positive gate in assay [1], in [2] and in [3] were 11.1%, 3.05% and 3.09%, respectively.
“10-1074 heavy and light chain variable genes introduced at the native heavy and kappa loci of primar (antibody)”: the figures for the % of cells in the SOSIP-positive gate in assay [4] and in [5] were 2.38% and 0.95%, respectively.
In assay [6], “B-cell receptors of primary murine B cells edited to express the HCDR3 of the predicted unmutated common ancestor of the VRC26 family (VRC26-UCA) (antibody)” yielded a % of cells in the SOSIP gate of 2.26%.
Take “B-cell receptors of primary murine B cells edited to express the PG9 HCDR3 (antibody)”: the % of cells in the SOSIP gate in assay [6] stood at 1.49%.
In turn, “B-cell receptors of primary murine B cells edited to express the PG16 HCDR3 (antibody)” yielded a % of cells in the SOSIP gate in assay [6] of 1.02%.
In the case of Negative control (antibody), the % of cells above the SOSIP gate line with SOSIP was determined as 0.12%.
Turning to No HDRT (antibody), the % of cells in the SOSIP-positive gate came out at 0.45% in assay [7]; 0.17% in [8]; 0.34% in assay [9]; 0.58% in assay [10]; 0.44% in assay [11]; 0.24% in assay [12]. The % of cells in the SOSIP-positive gate in assay [13] amounted to 0.12%.
Take “VRC26.25 heavy-chain variable gene introduced at the native heavy-chain locus of Jeko-1 cells (B-cell receptor on the cell surface) (antibody)”: the % of cells in the SOSIP-positive gate in [14] was 7.12%; in [1] it was 37.8%; in assay [15] it was 5.24%; in assay [2] it was 7.12%; in assay [16], 4.43% and 1.12%.
In the case of “VRC26.25-y heavy and light chain variable genes introduced at the native loci of primary murine B cells (B-cell receptor) (antibody)”, the % of cells in the SOSIP-positive gate in [4] worked out at 7.55%; in [5], 1.78%.
Regarding “VRC26.25-y heavy chain alone introduced into primary murine B cells (B-cell receptor with endogenous murine light chains) (antibody)”, the % of cells in the SOSIP-positive gate in [17] was 1.59% and 1.47% and 1%.
